T1: Pro-(X)-BMP-10 S385G, O95393
T1 chain: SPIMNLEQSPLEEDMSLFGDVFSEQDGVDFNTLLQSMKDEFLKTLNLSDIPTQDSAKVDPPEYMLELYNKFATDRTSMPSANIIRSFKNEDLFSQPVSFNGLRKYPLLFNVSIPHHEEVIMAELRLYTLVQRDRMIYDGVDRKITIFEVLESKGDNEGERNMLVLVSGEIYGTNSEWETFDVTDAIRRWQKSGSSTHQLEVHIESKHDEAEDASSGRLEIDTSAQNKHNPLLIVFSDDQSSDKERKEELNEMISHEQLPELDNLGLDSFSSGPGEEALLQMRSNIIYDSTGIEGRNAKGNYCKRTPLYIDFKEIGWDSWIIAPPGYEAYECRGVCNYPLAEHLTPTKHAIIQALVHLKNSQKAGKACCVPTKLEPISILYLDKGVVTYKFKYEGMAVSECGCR

T2: Pro-(X)-BMP-10 S385G, R353K, O95393
T2 chain: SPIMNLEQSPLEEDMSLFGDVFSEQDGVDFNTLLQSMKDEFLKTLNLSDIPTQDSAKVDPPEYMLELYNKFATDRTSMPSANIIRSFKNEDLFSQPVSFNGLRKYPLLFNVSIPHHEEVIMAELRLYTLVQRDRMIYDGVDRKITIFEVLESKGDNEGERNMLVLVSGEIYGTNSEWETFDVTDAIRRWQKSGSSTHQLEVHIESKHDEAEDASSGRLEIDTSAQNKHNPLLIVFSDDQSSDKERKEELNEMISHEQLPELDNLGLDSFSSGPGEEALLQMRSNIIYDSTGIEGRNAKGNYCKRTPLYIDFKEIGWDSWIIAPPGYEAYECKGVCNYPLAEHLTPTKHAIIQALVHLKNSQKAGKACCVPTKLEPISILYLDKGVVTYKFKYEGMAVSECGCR


Target: T1, Pro-(X)-BMP-10 S385G, O95393
Test: SDS-PAGE densitometry
Settings: chain shown with the change; IMAC column purified Pro-BMP-10

| other: disulfide-linked dimer over monomer ratio | Binder |
| --- | --- |
| 0.42 | Pro-(X)-BMP-10, O95393 S385G (protein) SPIMNLEQSPLEEDMSLFGDVFSEQDGVDFNTLLQSMKDEFLKTLNLSDIPTQDSAKVDPPEYMLELYNKFATDRTSMPSANIIRSFKNEDLFSQPVSFNGLRKYPLLFNVSIPHHEEVIMAELRLYTLVQRDRMIYDGVDRKITIFEVLESKGDNEGERNMLVLVSGEIYGTNSEWETFDVTDAIRRWQKSGSSTHQLEVHIESKHDEAEDASSGRLEIDTSAQNKHNPLLIVFSDDQSSDKERKEELNEMISHEQLPELDNLGLDSFSSGPGEEALLQMRSNIIYDSTGIEGRNAKGNYCKRTPLYIDFKEIGWDSWIIAPPGYEAYECRGVCNYPLAEHLTPTKHAIIQALVHLKNSQKAGKACCVPTKLEPISILYLDKGVVTYKFKYEGMAVSECGCR |

Target: T2, Pro-(X)-BMP-10 S385G, R353K, O95393
Test: SDS-PAGE densitometry
Settings: chain shown with the change; IMAC column purified Pro-BMP-10

| other: disulfide-linked dimer over monomer ratio | Binder |
| --- | --- |
| 0.41 | Pro-(X)-BMP-10, O95393 S385G; R353K (protein) SPIMNLEQSPLEEDMSLFGDVFSEQDGVDFNTLLQSMKDEFLKTLNLSDIPTQDSAKVDPPEYMLELYNKFATDRTSMPSANIIRSFKNEDLFSQPVSFNGLRKYPLLFNVSIPHHEEVIMAELRLYTLVQRDRMIYDGVDRKITIFEVLESKGDNEGERNMLVLVSGEIYGTNSEWETFDVTDAIRRWQKSGSSTHQLEVHIESKHDEAEDASSGRLEIDTSAQNKHNPLLIVFSDDQSSDKERKEELNEMISHEQLPELDNLGLDSFSSGPGEEALLQMRSNIIYDSTGIEGRNAKGNYCKRTPLYIDFKEIGWDSWIIAPPGYEAYECKGVCNYPLAEHLTPTKHAIIQALVHLKNSQKAGKACCVPTKLEPISILYLDKGVVTYKFKYEGMAVSECGCR |

Target: the molecule itself
Test: crystal structure; BMP-9 disulfide-linked dimers (wild type and mutants) at neutral pH; 1 M NaCl, glycerol, 0.1 M HEPES pH 7.4; multi-crystal data split into fractions
Settings: not given

| Binder | binding result |
| --- | --- |
| BMP-9 G389S, K357R disulfide-linked dimer (ligand, human, UniProt Q9UK05 320-429, looked up, interchain disulfide Cys-392 to Cys-392', Human BMP-9 growth factor released by factor Xa from the G389S, K357R mutant of Pro-(X)-BMP-9 (proBMP9 residues 23-429, A321S, RRKR replaced by IEGR); also called BMP-9 double-mutant; BMP-9 G389S K357R Dimer; source: expi293 (suspension HEK293), secreted as Pro-(X)-BMP-9 mutant; IMAC, factor Xa digestion, C18 reverse phase) SSGAGSHCQKTSLRVNFEDIGWDSWIIAPKEYEAYECRGGCFFPLADDVTPTKHAIVQTLVHLKFPTKVSKACCVPTKLSPISVLYKDDMGVPTLKYHYEGMSVAECGCR | binds |
| BMP-9 G389S disulfide-linked dimer (ligand, human, UniProt Q9UK05 320-429, looked up, interchain disulfide Cys-392 to Cys-392', Human BMP-9 growth factor released by factor Xa from the G389S mutant of Pro-(X)-BMP-9 (proBMP9 residues 23-429, A321S, RRKR replaced by IEGR); also called BMP-9 G389S Dimer; source: expi293 (suspension HEK293), secreted as Pro-(X)-BMP-9 mutant; IMAC, factor Xa digestion, C18 reverse phase) SSGAGSHCQKTSLRVNFEDIGWDSWIIAPKEYEAYECKGGCFFPLADDVTPTKHAIVQTLVHLKFPTKVSKACCVPTKLSPISVLYKDDMGVPTLKYHYEGMSVAECGCR | binds |

Target: the molecule itself
Test: non-reducing SDS-PAGE with densitometry; IMAC-purified pro-proteins from expi293 conditioned medium, non-reduced against reduced; bands of disulfide-linked dimer and monomer
Settings: not given

| Binder | binding result |
| --- | --- |
| Pro-(fr)-TGF-β2 (natural protein, human, UniProt P61812-1 19-414, looked up, Human proTGF-β2 residues 19-414; Behind the mouse Ig signal peptide and the 8xHis tag, no processing site after the tag; Furin processing incomplete; also called Pro-TGF-β2; source: expi293 (suspension HEK293), secreted; purified from conditioned medium by the histidine tag (IMAC); not shown: 8xHis, N-terminal, kept) LSLSTSSTLDMDQFMRKRIEAIRGQILSKLKLTSPPEDYPEPEEVPPEVISIYNSTRDLLQEKASRRAAACERERSDEEYYAKEVYKIDMPPFFPSENAIPPTFYRPYFRIVRFDVSAMEKNASNLVKAEFRVFRLQNPKARVAEQRIELYQILKSKDLTSPTQRYIDSKVVKTRAEGEWLSFDVTDAVHEWLHHKDRNLGFKISLHCPCCTFVPSNNYIIPNKSEELEARFAGIDGTSTYTSGDQKTIKSTRKKNSGKTPHLLLMLLPSYRLESQQTNRRKKRALDAAYCFRNVQDNCCLRPLYIDFKRDLGWKWIHEPKGYNANFCAGACPYLWSSDTQHSRVLSLYNTINPEASASPCCVSQDLEPLTILYYIGKTPKIEQLSNMIVKSCKCS | binds |
| Pro-(fr)-BMP-9 (natural protein, human, UniProt Q9UK05 23-429, looked up, Human proBMP9 residues 23-429 with the natural furin site; Partially processed by furin: the sample holds unprocessed pro-protein, prodomain and growth factor (12 and 24 kDa); also called Pro-BMP-9 with unmodified furin processing site; wild-type BMP-9; source: expi293 (suspension HEK293), secreted; purified from conditioned medium by IMAC; not shown: 8xHis, N-terminal, kept) KPLQSWGRGSAGGNAHSPLGVPGGGLPEHTFNLKMFLENVKVDFLRSLNLSGVPSQDKTRVEPPQYMIDLYNRYTSDKSTTPASNIVRSFSMEDAISITATEDFPFQKHILLFNISIPRHEQITRAELRLYVSCQNHVDPSHDLKGSVVIYDVLDGTDAWDSATETKTFLVSQDIQDEGWETLEVSSAVKRWVRSDSTKSKNKLEVTVESHRKGCDTLDISVPPGSRNLPFFVVFSNDHSSGTKETRLELREMISHEQESVLKKLSKDGSTEAGESSHEEDTDGHVAAGSTLARRKRSSGAGSHCQKTSLRVNFEDIGWDSWIIAPKEYEAYECKGGCFFPLADDVTPTKHAIVQTLVHLKFPTKVGKACCVPTKLSPISVLYKDDMGVPTLKYHYEGMSVAECGCR | binds |

Reference: PMC12148503, “Molecular Basis of Interchain Disulfide Bond Formation in BMP-9 and BMP-10” (Journal of molecular biology, 2025)
